Measured values as given in patent US20220340678A1.

Assays:
[1] = target: human uPAR expressed on HEK293 cells (human), Q03405; experiment: flow cytometry, HEK293 cells expressing human uPAR, 100 nM uPA present
[2] = target: biotinylated human uPAR (human), Q03405; experiment: BLI (Octet) competition on biotinylated human uPAR; competitor (first antibody): M5
[3] = target: biotinylated human uPAR (human), Q03405; experiment: BLI (Octet) competition on biotinylated human uPAR; competitor (first antibody): ATN-368 (ATN-658)
[4] = target: biotinylated human uPAR (human), Q03405; experiment: BLI (Octet) on biotinylated human uPAR; row 'None': no first antibody
[5] = target: biotinylated human uPAR (human), Q03405; experiment: BLI (Octet) competition on biotinylated human uPAR; competitor (first antibody): M1

- EC50 [1]: 3.99 nM
- response in competition assay [2]: 0.387
- response in competition assay [3]: -0.0274
- response in competition assay [4]: 0.33
- response in competition assay [5]: -0.0144
B1: ATN-658 (antibody)
chain 1: not shown
chain 2: VQLQESGPELVKTGASVKISCKASGYSFTSYYMHWVKQSHGKSLEWIGEINPYNGGASYNQKIKGRATFTVDTSSRTAYMQFNSLTSEDSAVYYCARSIYGHSVLDYWGQGTTVTVS
modifications: not checked
